7 molecules from US20050282743A1, “Molecular interactions in cells” (Arbor Vita Corporation, priority 2001, published 2005) can be followed below.

Assay [1] has as its target T1, PDZ protein (GST-PDZ fusion) (Homo sapiens, UniProt O14641).
T1 construct: made in house; host or cells: E. coli (DH5alpha, BL21 or JM109)
T1 sequence (O14641 1-736): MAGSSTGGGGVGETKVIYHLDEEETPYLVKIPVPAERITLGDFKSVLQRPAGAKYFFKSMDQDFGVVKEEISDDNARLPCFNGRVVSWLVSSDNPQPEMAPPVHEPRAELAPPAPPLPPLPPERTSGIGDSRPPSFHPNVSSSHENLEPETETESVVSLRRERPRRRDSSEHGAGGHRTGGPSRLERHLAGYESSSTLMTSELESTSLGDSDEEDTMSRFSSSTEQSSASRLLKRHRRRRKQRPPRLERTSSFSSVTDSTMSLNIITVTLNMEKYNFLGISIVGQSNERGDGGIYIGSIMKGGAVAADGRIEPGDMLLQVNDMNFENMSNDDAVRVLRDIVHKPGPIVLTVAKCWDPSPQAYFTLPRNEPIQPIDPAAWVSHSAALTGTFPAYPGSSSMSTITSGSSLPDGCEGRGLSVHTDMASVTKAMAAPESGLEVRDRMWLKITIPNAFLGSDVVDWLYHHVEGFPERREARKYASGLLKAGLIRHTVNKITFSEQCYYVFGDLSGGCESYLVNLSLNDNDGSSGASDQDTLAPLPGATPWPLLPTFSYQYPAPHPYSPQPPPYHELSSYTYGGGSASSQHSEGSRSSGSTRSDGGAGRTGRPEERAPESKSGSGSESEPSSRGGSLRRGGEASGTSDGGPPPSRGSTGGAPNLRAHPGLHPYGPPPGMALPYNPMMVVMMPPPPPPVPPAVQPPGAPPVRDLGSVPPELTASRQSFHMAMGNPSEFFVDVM
Briefly: G' assay (10 uM PL peptide), results of TABLE 7 and TABLE 12. To be noted: PDZ DVL2, PDZ Domain 1. It counts as binding. A digest of the protocol:
(§1)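 Binding classes derive from A450 nm of bound biotin-tagged PL peptide. A score of 5 needs A450 above 4 in more than two repeats.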

Assay [2] has as its target T2, PDZ protein (GST-PDZ fusion) (Homo sapiens, UniProt P29475).
T2 construct: made in house; host or cells: E. coli (DH5alpha, BL21 or JM109)
The description is as above. It counts as binding. The note with it: PDZ NOS1, PDZ Domain 1. The gist of the method:
as §1

Ends that are not written are not given here. Peptide text beside a SMILES is read from it. * marks the point of attachment. Biotin = O=C1N[C@H]2[C@H](CS[C@H]2CCCCC(=O)*)N1

T2 sequence (P29475 whole entry, the tested form may be a part): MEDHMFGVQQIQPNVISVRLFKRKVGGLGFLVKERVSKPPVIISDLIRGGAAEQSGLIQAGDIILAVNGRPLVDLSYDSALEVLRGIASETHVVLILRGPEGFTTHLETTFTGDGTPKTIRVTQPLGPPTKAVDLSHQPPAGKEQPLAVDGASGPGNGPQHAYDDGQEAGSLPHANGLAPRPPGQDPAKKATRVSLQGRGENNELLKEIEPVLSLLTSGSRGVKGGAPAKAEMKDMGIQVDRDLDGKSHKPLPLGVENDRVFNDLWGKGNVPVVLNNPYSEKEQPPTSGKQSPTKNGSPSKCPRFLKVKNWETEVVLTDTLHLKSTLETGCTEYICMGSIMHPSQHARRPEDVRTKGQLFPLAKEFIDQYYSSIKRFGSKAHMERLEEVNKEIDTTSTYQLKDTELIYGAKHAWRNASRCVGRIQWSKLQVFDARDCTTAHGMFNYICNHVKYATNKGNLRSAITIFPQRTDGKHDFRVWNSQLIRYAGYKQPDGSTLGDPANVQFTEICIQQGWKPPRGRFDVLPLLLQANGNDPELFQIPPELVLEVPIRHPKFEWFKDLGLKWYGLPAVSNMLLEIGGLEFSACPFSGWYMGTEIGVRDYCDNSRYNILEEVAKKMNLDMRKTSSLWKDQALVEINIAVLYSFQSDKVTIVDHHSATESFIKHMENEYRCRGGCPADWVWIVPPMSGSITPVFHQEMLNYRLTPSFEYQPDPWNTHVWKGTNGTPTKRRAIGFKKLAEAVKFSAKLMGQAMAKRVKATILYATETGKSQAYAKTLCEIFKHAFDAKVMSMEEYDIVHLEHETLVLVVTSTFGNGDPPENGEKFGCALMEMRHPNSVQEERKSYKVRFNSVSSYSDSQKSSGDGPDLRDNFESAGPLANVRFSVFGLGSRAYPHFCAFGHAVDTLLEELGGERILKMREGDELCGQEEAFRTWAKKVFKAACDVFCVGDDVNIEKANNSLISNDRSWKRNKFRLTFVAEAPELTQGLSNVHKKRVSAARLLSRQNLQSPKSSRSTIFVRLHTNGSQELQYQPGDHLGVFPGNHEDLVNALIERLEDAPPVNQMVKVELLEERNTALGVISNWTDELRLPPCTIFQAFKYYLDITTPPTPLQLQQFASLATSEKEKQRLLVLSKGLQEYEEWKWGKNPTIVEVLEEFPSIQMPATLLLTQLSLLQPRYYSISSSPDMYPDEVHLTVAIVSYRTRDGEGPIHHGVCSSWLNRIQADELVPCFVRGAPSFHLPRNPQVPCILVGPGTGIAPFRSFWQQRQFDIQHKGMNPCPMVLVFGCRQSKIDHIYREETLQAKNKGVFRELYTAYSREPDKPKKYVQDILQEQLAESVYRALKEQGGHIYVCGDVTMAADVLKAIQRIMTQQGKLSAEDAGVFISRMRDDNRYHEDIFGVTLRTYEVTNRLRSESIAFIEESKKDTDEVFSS

For “A2AC_HUMAN (Modified) (Biotin-DFRPSFKHILFRRARRGFRQ; not fully specified)”, in assay [1], the Classification is 3 (A450 nm 2-3). Still for that read-out and setting: in the case of “ALVLIAFCIIRRRPSAYQAL (Biotin-ALVLIAFCIIRRRPSAYQAL) [CD68]” it was 2 (A450 nm 1-2); in that of “KTMPAAMFRLLTGQETPLYI (Biotin-KTMPAAMFRLLTGQETPLYI) [MINT-2]”, 2 (A450 nm 1-2).

Turning to `CC[C@H](C)[C@H](NC(=O)[C@H](Cc1ccc(O)cc1)NC(=O)[C@H](CC(C)C)NC(=O)[C@H](CCC(N)=O)NC(=O)[C@H](Cc1c[nH]cn1)NC(=O)[C@H](CO)NC(=O)[C@H](C)NC(=O)[C@H](CC(C)C)NC(=O)[C@@H](NC(=O)[C@H](CC(=O)O)NC(=O)[C@H](CCSC)NC(=O)[C@H](Cc1ccccc1)NC(=O)[C@@H]1CCCN1C(=O)[C@H](CCCNC(=N)N)NC(=O)[C@@H](NC(=O)[C@H](CC(C)C)NC(=O)[C@H](CC(N)=O)NC(=O)[C@H](CC(=O)O)NC(=O)[C@@H](NC(=O)[C@H](CO)NC(=O)CCCC[C@@H]1SC[C@@H]2NC(=O)N[C@@H]21)[C@@H](C)O)C(C)C)[C@@H](C)O)C(=O)O` [presenilin-2] (Biotin-STDNLVRPFMDTLASHQLYI-OH; C-terminus assumed), the Classification in assay [2] and in assay [1] was 1 (A450 nm 0-1) throughout. In the case of `CC[C@H](C)[C@H](NC(=O)[C@H](Cc1ccc(O)cc1)NC(=O)[C@@H](NC(=O)[C@@H]1CCCN1C(=O)[C@H](CCC(N)=O)NC(=O)[C@H](CCC(=O)O)NC(=O)[C@H](CCC(N)=O)NC(=O)[C@H](C)NC(=O)[C@@H](NC(=O)[C@H](CC(C)C)NC(=O)[C@H](CC(C)C)NC(=O)[C@H](CCCNC(=N)N)NC(=O)[C@H](Cc1ccc(O)cc1)NC(=O)[C@H](CCSC)NC(=O)[C@H](C)NC(=O)[C@H](C)NC(=O)[C@@H]1CCCN1C(=O)[C@H](CCSC)NC(=O)[C@@H](NC(=O)[C@H](CCCCN)NC(=O)CCCC[C@@H]1SC[C@@H]2NC(=O)N[C@@H]21)[C@@H](C)O)[C@@H](C)O)C(C)C)C(=O)O` [MINT-1] (Biotin-KTMPAAMYRLLTAQEQPVYI-OH; C-terminus assumed), the Classification in assay [2] is on record as 4 (A450 nm 3-4); in assay [1] it was 2 (A450 nm 1-2). The like results for “ELLQFCRTPNPALKNGQYWV (Biotin-ELLQFCRTPNPALKNGQYWV)” were, in that order, 2 (A450 nm 1-2) and 5 (A450 nm of 4 more than 2× repeated).

In the case of “KTMPAATYRLLTGQEQPVYL (Biotin-KTMPAATYRLLTGQEQPVYL) [MINT-3]”, the Classification in assay [1] was 1 (A450 nm 0-1).
